The term IC50 denotes the concentration that gives 50% inhibition. Read a high IC50 as a need for much substance.

Among the data in US20100280227A1 (Genentech, published 2010) are IC50 values, retold here.

In assay [1] the target is T1, V3-46s-42 Fab.
T1 construct: soluble Fab in SPR; also called V46s-42
Put plainly: phage competition ELISA, ECD in solution (printed Phage50). (ELISA stands for enzyme-linked immunosorbent assay.)

The target of assay [2] is T2, V3-46s Fab.
T2 construct: N31S mutant of V3-46; also called V46s; N31S
The assay is described as above.
Target sequence in this assay (VH, as listed by the source, chain 1 of 2): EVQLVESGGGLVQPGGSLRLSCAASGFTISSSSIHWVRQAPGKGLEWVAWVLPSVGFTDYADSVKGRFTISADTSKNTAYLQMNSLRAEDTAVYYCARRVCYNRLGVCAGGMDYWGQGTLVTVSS
Target sequence in this assay (VL, as listed by the source, chain 2 of 2): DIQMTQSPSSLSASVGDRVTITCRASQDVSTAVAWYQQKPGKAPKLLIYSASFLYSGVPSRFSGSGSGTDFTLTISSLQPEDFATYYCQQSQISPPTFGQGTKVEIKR

The target of assay [3] is T3, V3-46s-9 Fab.
T3 construct: soluble Fab in SPR; also called V46s-9
The description is as above.

The target of assay [4] is T2, V3-46s Fab. Put plainly: phage competition ELISA, ECD in solution.
Protocol: (§1) Second, the concentration of purified phage that would be optimal for use in the following competition ELISA assay was determined (i.e., approximately 90% of maximal binding capacity on the coated plate). […] The wells were blocked by adding 65 ul 1% BSA for 30 minutes followed by 40 ul 1% Tween20 for another 30 minutes. Next, the wells were washed five times with PBS—0.05% Tween20. F(ab)′2 phage were diluted to 0.1 O.D./ml in ELISA buffer (PBS—0.5% BSA and 0.05% Tween20) and, then, were added to the wells for 15 minutes at room temperature. The wells were then washed with PBS—0.05% Tween20 at least three times. 75 ul of HRP-conjugated anti-M13 antibody (Amersham, 1/5000 dilution with ELISA buffer) per well was added and incubated at room temperature for 30 minutes. The wells were washed again with PBS—0.05% Tween20 at least five times. Next, 100 ul/well of a 1:1 ratio of 3,3′,5,5′-tetramethylbenzidine (TMB) Peroxidase substrate and Peroxidase Solution B (H2O2) ((Kirkegaard-Perry Laboratories (Gaithersburg, Md.)) was added to the well and incubated for 5 minutes at room temperature. The optical density of the color in each well was determined using a standard ELISA plate reader at 450 nm. The dilutions of phage were plotted against the O.D. readings.
(§2) Third, a competition ELISA was performed. […]
Assay [5] has as its target T4, V3-1 Fab.
T4 construct: soluble Fab in SPR
Kind of assay: phage competition ELISA, ECD in solution.
Protocol: as §1, §2

The target in assay [6] is T5, V3-13 Fab.
T5 construct: soluble Fab in SPR
Kind of assay: phage competition ELISA, ECD in solution.
Protocol: (§3) Third, a competition ELISA was performed. […] The wells were blocked by adding 65 ul 1% BSA for 30 minutes followed by 40 ul 1% Tween20 for another 30 minutes. The wells were washed with PBS—0.05% Tween20 5 times. […] The wells of the second plate were washed with PBS—0.5% Tween20 at least three times. 75 ul of HRP-conjugated anti-M13 antibody (1/5000 dilution with ELISA buffer) per well was added and incubated at room temperature for 30 minutes. The wells were washed again with PBS—0.05% Tween20 at least five times.

The target of assay [7] is T6, V3-12 Fab.
T6 construct: soluble Fab in SPR
Kind of assay: phage competition ELISA, ECD in solution.
Protocol: as §3

Assay [8] concerns the target T4, V3-1 Fab. Kind of assay: phage competition ELISA, ECD in solution. The source holds these as a separate data set.
Target sequence in this assay (VH, as listed by the source, chain 1 of 2): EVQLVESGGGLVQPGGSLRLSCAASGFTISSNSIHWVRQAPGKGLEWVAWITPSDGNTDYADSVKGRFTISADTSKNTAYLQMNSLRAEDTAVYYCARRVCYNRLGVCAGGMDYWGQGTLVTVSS
Target sequence in this assay (VL, as listed by the source, chain 2 of 2): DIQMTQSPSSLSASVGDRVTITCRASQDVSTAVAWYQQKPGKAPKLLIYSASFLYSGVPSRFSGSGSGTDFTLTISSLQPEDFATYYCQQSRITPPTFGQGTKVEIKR
Protocol: as §3
Assay [9] deals with T7, V3-11 Fab.
T7 construct: soluble Fab in SPR
Kind of assay: phage competition ELISA, ECD in solution.
Protocol: as §3

The target of assay [10] is T8, V3-46 phage clone.
T8 construct: also called V3-46 WT; clone 46
Put plainly: phage competition ELISA, ECD in solution (printed Phage ID50).
Protocol: as §3

Assay [11] concerns the target T9, V3-46 N31A phage clone.
T9 construct: also called V3-46a
Described as above.
Protocol: as §3

Assay [12] has as its target T2, V3-46s Fab. Described as above.
Protocol: as §3
The target in assay [13] is T10, V3-46 N31Q phage clone.
T10 construct: also called V3-46q
The assay is described as above.
Protocol: as §3

Where two headings read alike, the source gives them in different places.

T6 sequence (VH, as listed by the source, chain 1 of 2): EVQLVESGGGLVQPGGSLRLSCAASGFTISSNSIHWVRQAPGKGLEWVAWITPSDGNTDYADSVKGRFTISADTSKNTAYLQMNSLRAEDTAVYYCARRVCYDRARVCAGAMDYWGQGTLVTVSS
T6 sequence (VL, as listed by the source, chain 2 of 2): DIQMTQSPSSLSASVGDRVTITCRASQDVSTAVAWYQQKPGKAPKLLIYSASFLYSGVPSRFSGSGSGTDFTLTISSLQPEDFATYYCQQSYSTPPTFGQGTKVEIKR
T1 sequence (VL, as listed by the source, chain 2 of 2): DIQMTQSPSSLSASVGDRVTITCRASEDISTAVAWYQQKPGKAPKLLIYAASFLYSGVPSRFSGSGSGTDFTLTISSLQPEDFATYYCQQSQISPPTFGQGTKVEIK
T3 sequence (VL, as listed by the source, chain 2 of 2): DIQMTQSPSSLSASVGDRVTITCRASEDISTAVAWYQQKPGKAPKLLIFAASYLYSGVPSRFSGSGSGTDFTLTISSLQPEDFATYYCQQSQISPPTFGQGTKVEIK
T10 sequence (VH, as listed by the source, chain 1 of 2): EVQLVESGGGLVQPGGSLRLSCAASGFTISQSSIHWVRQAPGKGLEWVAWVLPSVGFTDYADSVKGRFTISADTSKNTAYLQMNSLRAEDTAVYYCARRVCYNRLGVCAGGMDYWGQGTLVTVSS
T7 sequence (VH, as listed by the source, chain 1 of 2): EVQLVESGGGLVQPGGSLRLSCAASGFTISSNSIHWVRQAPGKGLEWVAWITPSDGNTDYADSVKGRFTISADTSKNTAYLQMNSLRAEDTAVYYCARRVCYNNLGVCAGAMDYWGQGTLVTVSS
T7 sequence (VL, as listed by the source, chain 2 of 2): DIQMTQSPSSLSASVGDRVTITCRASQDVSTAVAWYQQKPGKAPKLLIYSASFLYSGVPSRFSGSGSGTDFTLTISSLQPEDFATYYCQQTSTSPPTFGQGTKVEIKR

B1: mouse BR3 extracellular domain (receptor)
chain: MGARRLRVRSQRSRDSSVPTQCNQTECFDPLVRNCVSCELFHTPDTGHTSSLEPGTALQPQEGS
notes: also called mBR3-ECD; mBR-ECD
B1: the IC50 in [1] was 0.23 nM; in assay [2], 1.7 nM; in assay [3] it was 0.18 nM; in assay [4], 1.53 nM; in [5], 5.4 nM; in [6], 33 nM. The IC50 in [7] came to 57 nM; in assay [8] it was 5.4 nM; in assay [9], 8.4 nM; in assay [10], 1.42 nM; in assay [11] it was 2.89 nM; in assay [12], 1.53 nM. Moreover, the IC50 in assay [13] turned out to be 2.44 nM.
